According to patent EP4813396A2 (Amphivena Therapeutics, Inc., dated 2026):

Key:
human CD3 on T cells [1] = target: T1, human CD3 on T cells (human, UniProt P07766 23-207); experiment: cell-based or functional assay
human CD33 on cells [2] = target: T2, human CD33 on cells (human, UniProt P20138 18-364); experiment: flow cytometry, titration on KG-1 cells
T2 construct: whole, on cells; also called huCD33

human CD33 on cells [3] = target: T2, human CD33 on cells; experiment: flow cytometry, HL-60 cells
human CD33 on cells [4] = target: T2, human CD33 on cells; experiment: flow cytometry, titration on HL-60 cells
human CD33 on cells [5] = target: T2, human CD33 on cells; experiment: flow cytometry, titration on U-937 cells
[6] = target: cynomolgus CD33 on CHO cells (cynomolgus monkey); experiment: flow cytometry; KD on CHO-cynomolgus CD33 cells divided by KD on CHO-human CD33 cells
human CD3 on T cells [7] = target: T1, human CD3 on T cells; experiment: flow cytometry, human T-cells (as headed in Table 10)
human CD3 on T cells [8] = target: T1, human CD3 on T cells; experiment: flow cytometry, titration on human CD3+ T cells (Jurkat per paragraph 124/paragraph 125)
human CD33 on cells [9] = target: T2, human CD33 on cells; experiment: cell-based or functional assay

T1 sequence (P07766 23-207): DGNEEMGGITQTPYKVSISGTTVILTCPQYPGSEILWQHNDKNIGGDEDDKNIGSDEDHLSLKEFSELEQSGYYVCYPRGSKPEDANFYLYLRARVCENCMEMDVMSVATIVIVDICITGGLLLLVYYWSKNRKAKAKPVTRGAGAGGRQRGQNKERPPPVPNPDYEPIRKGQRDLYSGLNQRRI
T2 sequence (P20138 18-364): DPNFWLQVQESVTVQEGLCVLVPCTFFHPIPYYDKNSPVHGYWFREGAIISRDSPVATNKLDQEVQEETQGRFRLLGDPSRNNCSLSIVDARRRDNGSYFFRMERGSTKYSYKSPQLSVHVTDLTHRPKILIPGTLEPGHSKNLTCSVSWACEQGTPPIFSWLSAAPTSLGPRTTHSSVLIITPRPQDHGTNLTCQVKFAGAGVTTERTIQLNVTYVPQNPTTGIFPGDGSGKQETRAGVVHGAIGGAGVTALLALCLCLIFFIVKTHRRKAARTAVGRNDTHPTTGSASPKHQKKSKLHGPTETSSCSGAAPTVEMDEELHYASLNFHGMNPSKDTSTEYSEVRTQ

Binder | CD69 Induction EC50 (pM) (human CD3 on T cells [1]) | T cell Proliferation in PBMC EC50 (pM) (human CD3 on T cells [1]) | Kd (human CD33 on cells [2]) [nM] | Kd (human CD33 on cells [3]) [nM] | Kd (human CD33 on cells [4]) [nM] | Kd (human CD33 on cells [5]) [nM] | KD ratio cynoCD33/ huCD33 [6] | Kd (human CD3 on T cells [7]) [nM] | Kd (human CD3 on T cells [8]) [nM] | EC50 on HL-60 [pM] (cytotoxicity) (human CD33 on cells [9]) | CD25 Induction EC50 (pM) (human CD3 on T cells [1])
CD33/CD3 tandem diabody 21 (bispecific antibody, Non-covalent homodimer; domain order 1; also called TandAb 21) DIQMTQSPSSLSASVGDRVTITCRSSTGAVTTSNYANWVQQKPGKAPKALIGGTNKRAPGVPSRFSGSLIGDKATLTISSLQPEDFATYYCALWYSNLWVFGQGTKVEIKGGSGGSQVQLVQSGAEVKKPGSSVKVSCKASGGTFSSYAISWVRQAPGQGLEWMGGIYPIFGSANYAQKFQGRVTITADESTSTAYMELSSLRSEDTAVYYCAREYYYDSSEWAFDIWGQGTLVTVSSGGSGQSVLTQPPSASGTPGQRVTISCSGSSSNIGSNIVNWYQQLPGTAPKLLIYSNNQRPSGVPDRFSGSKSGTSASLAISGLQSEDEADYYCAAWDDSLKGYVFGGGTKLTVLGGSGGSEVQLVESGGGLVQPGGSLRLSCAASGFTFSTYAMNWVRQAPGKGLEWVGRIRSKYNNYATYYADSVKDRFTISRDDSKNSLYLQMNSLKTEDTAVYYCARHGNFGNSYVSYFAYWGQGTLVTVSSAAAGSHHHHHH | 225 | 500 | 25.1 | 9.7 | 9.7 | 80.2 | 0.9 | 2.1 | 2.1 | 7.6 | 
CD33/CD3 tandem diabody 24 (bispecific antibody, Non-covalent homodimer; domain order 1; also called TandAb 24) DIQMTQSPSSLSASVGDRVTITCRSSTGAVTTSNYANWVQQKPGKAPKALIGGTNKRAPGVPSRFSGSLIGDKATLTISSLQPEDFATYYCALWYSNLWVFGQGTKVEIKGGSGGSQVQLVQSGAEVKKPGSSVKVSCKASGGTFDSYAISWVRQAPGQGLEWMGGIIPIFGSAHYSQKFQGRVTITADESTSTAYMELSSLRSEDTAVYYCAREYYYDSSEWAFDIWGQGTLVTVSSGGSGQSVLTQPPSASGTPGQRVTISCSGSSSNIGDNVVNWYQQLPGTAPKLLIYSTNKRPSGVPDRFSGSKSGSSASLAISGLQSEDEADYYCAAWDDSLSAYVFGGGTKLTVLGGSGGSEVQLVESGGGLVQPGGSLRLSCAASGFTFSTYAMNWVRQAPGKGLEWVGRIRSKYNNYATYYADSVKDRFTISRDDSKNSLYLQMNSLKTEDTAVYYCARHGNFGNSYVSYFAYWGQGTLVTVSSAAAGSHHHHHH | 57 | 264 | 12.4 | 5.6 | 5.6 | 39.5 | 1.8 | 2.3 | 2.3 | 9.6 | 
CD33/CD3 tandem diabody 22 (bispecific antibody, Non-covalent homodimer; domain order 1; also called TandAb 22) DIQMTQSPSSLSASVGDRVTITCRSSTGAVTTSNYANWVQQKPGKAPKALIGGTNKRAPGVPSRFSGSLIGDKATLTISSLQPEDFATYYCALWYSNLWVFGQGTKVEIKGGSGGSQVQLVQSGAEVKKPGSSVKVSCKASGGTFSSYGISWVRQAPGQGLEWMGGIIPIFGSAHYAQKFQGRVTITADESTSTAYMELSSLRSEDTAVYYCAREYYYDSSEWAFDIWGQGTLVTVSSGGSGQSVLTQPPSASGTPGQRVTISCSGSSSNIGSNTVKWYQQLPGTAPKLLIYSNNQRSSGVPDRFSGSKSGSSASLAISGLQSEDEADYYCAAWDDSLNGYVFGGGTKLTVLGGSGGSEVQLVESGGGLVQPGGSLRLSCAASGFTFSTYAMNWVRQAPGKGLEWVGRIRSKYNNYATYYADSVKDRFTISRDDSKNSLYLQMNSLKTEDTAVYYCARHGNFGNSYVSYFAYWGQGTLVTVSSAAAGSHHHHHH | 4 | 7 | 2 | 0.7 | 0.7 | 8.6 | 0.6 | 4.1 | 4.1 | 3.2 | 10
CD33/CD3 tandem diabody 20 (bispecific antibody, Non-covalent homodimer; domain order 1; also called TandAb 20) DIQMTQSPSSLSASVGDRVTITCRSSTGAVTTSNYANWVQQKPGKAPKGLIGGTNKRAPGVPSRFSGSLIGTDFTLTISSLQPEDFATYYCALWYSNLWVFGQGTKVEIKGGSGGSQVQLVQSGAEVKKPGASVKVSCKASGYTFTSYYMHWVRQAPGQGLEWMGIINPSGGSTSYAQKFQGRVTMTRDTSTSTVYMELSSLRSEDTAVYYCARDVVPAAIDYYGMDVWGQGTTVTVSSGGSGQSVLTQPPSASGTPGQRVTISCSGSSSNIGSNTVNWYQQLPGTAPKLLIYSDNQRPSGVPDRFSGSKSGSSASLAISGLQSDDEADYYCATWDDSLNGAVFGGGTKLTVLGGSGGSEVQLVESGGGLVQPGGSLRLSCAASGFTFSTYAMNWVRQAPGKGLEWVGRIRSKYNNYATYYADSVKDRFTISRDDSKNSLYLQMNSLKTEDTAVYYCARHGNFGNSYVSWFAYWGQGTLVTVSS | 75 | 19 | 7 | 4.1 | 4.1 | 7.2 | 33.8 | 144 | 144 | 10 | 98
CD33/CD3 tandem diabody 09 (bispecific antibody, Non-covalent homodimer; domain order 1; also called TandAb 09; tandem diabody 9) DIQMTQSPSSLSASVGDRVTITCRSSTGAVTTSNYANWVQQKPGKAPKGLIGGTNKRAPGVPSRFSGSLIGDKATLTISSLQPEDFATYYCALWYSNLWVFGQGTKVEIKGGSGGSQVQLVQSGAEVKKPGASVKVSCKASGYTFTSYDINWVRQAPGQGLEWMGWMNPNSGNTGFAQKFQGRVTMTRDTSTSTVYMELSSLRSEDTAVYYCARDRANTDFSYGMDVWGQGTLVTVSSGGSGQSVLTQPPSASGTPGQRVTISCSGSRSNIGSNTVNWYQQLPGTAPKLLIYGNNQRPSGVPDRFSGSKSGSSASLAISGLQSEDEADYYCATWDDSLIGWVFGGGTKLTVLGGSGGSEVQLVESGGGLVQPGGSLRLSCAASGFTFSTYAMNWVRQAPGKGLEWVGRIRSKYNNYATYYADSVKDRFTISRDDSKNSLYLQMNSLKTEDTAVYYCARHGNFGNSYVSWFAYWGQGTLVTVSSAAAGSHHHHHH | 7 | 9 | 0.3 | 0.5 | 0.5 | 2.2 | 1 | 2.4 | 2.4 | 6.8 | 11
CD33/CD3 tandem diabody 11 (bispecific antibody, Non-covalent homodimer; domain order 1; also called TandAb 11) DIQMTQSPSSLSASVGDRVTITCRSSTGAVTTSNYANWVQQKPGKAPKGLIGGTNKRAPGVPSRFSGSLIGDKATLTISSLQPEDFATYYCALWYSNLWVFGQGTKVEIKGGSGGSQVQLVQSGAEVKKPGASVKVSCKASGYTFTSYDINWVRQAPGQGLEWMGWMNPNSGNTGFAQKFQGRVTMTRDTSTSTVYMELSSLRSEDTAVYYCARDRANTDYSLGMDVWGQGTLVTVSSGGSGQSVLTQPPSASGTPGQRVTISCSGSRSNIGSNTVNWYQQLPGTAPKLLIYGNNQRPSGVPDRFSGSKSGTSASLAISGLQSEDEADYYCATWDDSLIGWVFGGGTKLTVLGGSGGSEVQLVESGGGLVQPGGSLRLSCAASGFTFSTYAMNWVRQAPGKGLEWVGRIRSKYNNYATYYADSVKDRFTISRDDSKNSLYLQMNSLKTEDTAVYYCARHGNFGNSYVSWFAYWGQGTLVTVSSAAAGSHHHHHH | 5 | 6 | 0.5 | 0.3 | 0.3 | 0.6 | 1.2 | 2.6 | 2.6 | 5.9 | 11
CD33/CD3 tandem diabody 15 (bispecific antibody, Non-covalent homodimer; domain order 1; also called TandAb 15) DIQMTQSPSSLSASVGDRVTITCRSSTGAVTTSNYANWVQQKPGKAPKALIGGTNKRAPGVPSRFSGSLIGDKATLTISSLQPEDFATYYCALWYSNLWVFGQGTKVEIKGGSGGSQVQLVQSGAEVKKPGASVKVSCKASGYTFTSYDINWVRQAPGQGLEWMGWMNPNSGNTGFAQKFQGRVTMTRDTSTSTVYMELSSLRSEDTAVYYCARDRANTDYSFGMDVWGQGTLVTVSSGGSGQSVLTQPPSASGTPGQRVTISCSGSRSNIGSNTVNWYQQLPGTAPKLLIYGNNQRPSGVPDRFSGSKSGTSASLAISGLQSEDEADYYCATWDDSLIGWVFGGGTKLTVLGGSGGSEVQLVESGGGLVQPGGSLRLSCAASGFTFSTYAMNWVRQAPGKGLEWVGRIRSKYNNYATYYADSVKDRFTISRDDSKNSLYLQMNSLKTEDTAVYYCARHGNFGNSYVSYFAYWGQGTLVTVSSAAAGSHHHHHH | 7 | 7 | 0.3 | 0.4 | 0.4 | 0.9 | 1.1 | 1.3 | 1.3 | 1.8 | 6
